Results from IntAct's records for PubMed 31515488.

B1: Isoform 1 of Ras association domain-containing protein 2 (Homo sapiens), P50749-1 (parent)
chain: MDYSHQTSLVPCGQDKYISKNELLLHLKTYNLYYEGQNLQLRHREEEDEFIVEGLLNISWGLRRPIRLQMQDDNERIRPPPSSSSWHSGCNLGAQGTTLKPLTVPKVQISEVDAPPEGDQMPSSTDSRGLKPLQEDTPQLMRTRSDVGVRRRGNVRTPSDQRRIRRHRFSINGHFYNHKTSVFTPAYGSVTNVRINSTMTTPQVLKLLLNKFKIENSAEEFALYVVHTSGEKQKLKATDYPLIARILQGPCEQISKVFLMEKDQVEEVTYDVAQYIKFEMPVLKSFIQKLQEEEDREVKKLMRKYTVLRLMIRQRLEEIAETPATI
partner: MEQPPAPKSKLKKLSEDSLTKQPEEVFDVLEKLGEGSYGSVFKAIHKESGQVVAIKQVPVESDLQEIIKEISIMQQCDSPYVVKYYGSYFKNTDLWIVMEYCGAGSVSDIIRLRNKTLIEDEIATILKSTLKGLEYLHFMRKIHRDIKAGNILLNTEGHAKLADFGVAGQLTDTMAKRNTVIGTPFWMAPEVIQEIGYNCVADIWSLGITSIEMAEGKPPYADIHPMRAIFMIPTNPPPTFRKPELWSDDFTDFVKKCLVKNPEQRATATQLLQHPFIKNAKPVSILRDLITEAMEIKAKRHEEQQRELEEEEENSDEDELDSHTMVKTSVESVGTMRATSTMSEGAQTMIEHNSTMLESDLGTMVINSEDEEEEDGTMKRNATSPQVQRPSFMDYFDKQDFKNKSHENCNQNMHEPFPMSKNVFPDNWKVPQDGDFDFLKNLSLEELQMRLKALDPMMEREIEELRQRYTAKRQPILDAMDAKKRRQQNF
B2: Keratin, type I cytoskeletal 18 (Homo sapiens), P05783 (parent)
chain: MSFTTRSTFSTNYRSLGSVQAPSYGARPVSSAASVYAGAGGSGSRISVSRSTSFRGGMGSGGLATGIAGGLAGMGGIQNEKETMQSLNDRLASYLDRVRSLETENRRLESKIREHLEKKGPQVRDWSHYFKIIEDLRAQIFANTVDNARIVLQIDNARLAADDFRVKYETELAMRQSVENDIHGLRKVIDDTNITRLQLETEIEALKEELLFMKKNHEEEVKGLQAQIASSGLTVEVDAPKSQDLAKIMADIRAQYDELARKNREELDKYWSQQIEESTTVVTTQSAEVGAAETTLTELRRTVQSLEIDLDSMRNLKASLENSLREVEARYALQMEQLNGILLHLESELAQTRAEGQRQAQEYEALLNIKVKLEAEIATYRRLLEDGEDFNLGDALDSSNSMQTIQKTTTRRIVDGKVVSETNDTKVLRH
B3: Regulator of G-protein signaling 20 (Homo sapiens), O76081 (parent)
chain: MPQLSQDNQECLQKHFSRPSIWTQFLPLFRAQRYNTDIHQITENEGDLRAVPDIKSFPPAQLPDSPAAPKLFGLLSSPLSSLARFFSHLLRRPPPEAPRRRLDFSPLLPALPAARLSRGHEELPGRLSLLLGAALALPGRPSGGRPLRPPHPVAKPREEDATAGQSSPMPQMGSERMEMRKRQMPAAQDTPGAAPGQPGAGSRGSNACCFCWCCCCSCSCLTVRNQEDQRPTIASHELRADLPTWEESPAPTLEEVNAWAQSFDKLMVTPAGRNAFREFLRTEFSEENMLFWMACEELKKEANKNIIEEKARIIYEDYISILSPKEVSLDSRVREVINRNMVEPSQHIFDDAQLQIYTLMHRDSYPRFMNSAVYKDLLQSLSEKSIEA
partner: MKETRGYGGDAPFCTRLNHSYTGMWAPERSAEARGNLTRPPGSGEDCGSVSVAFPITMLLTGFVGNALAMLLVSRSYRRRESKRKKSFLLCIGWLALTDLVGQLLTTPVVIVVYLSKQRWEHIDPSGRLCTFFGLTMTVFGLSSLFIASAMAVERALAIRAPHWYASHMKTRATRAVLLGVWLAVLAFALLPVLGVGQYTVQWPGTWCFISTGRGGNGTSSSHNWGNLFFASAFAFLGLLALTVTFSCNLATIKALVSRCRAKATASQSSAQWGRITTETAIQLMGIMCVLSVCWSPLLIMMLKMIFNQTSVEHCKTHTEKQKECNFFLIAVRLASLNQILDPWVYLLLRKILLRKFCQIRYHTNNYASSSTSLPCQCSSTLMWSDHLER
B4: Eukaryotic translation initiation factor 4E-binding protein 2 (Homo sapiens), Q13542 (parent)
chain: MSSSAGSGHQPSQSRAIPTRTVAISDAAQLPHDYCTTPGGTLFSTTPGGTRIIYDRKFLLDRRNSPMAQTPPCHLPNIPGVTSPGTLIEDSKVEVNNLNNLNNHDRKHAVGDDAQFEMDI
B5: Pachytene checkpoint protein 2 homolog (Homo sapiens), Q15645 (parent)
chain: MDEAVGDLKQALPCVAESPTVHVEVHQRGSSTAKKEDINLSVRKLLNRHNIVFGDYTWTEFDEPFLTRNVQSVSIIDTELKVKDSQPIDLSACTVALHIFQLNEDGPSSENLEEETENIIAANHWVLPAAEFHGLWDSLVYDVEVKSHLLDYVMTTLLFSDKNVNSNLITWNRVVLLHGPPGTGKTSLCKALAQKLTIRLSSRYRYGQLIEINSHSLFSKWFSESGKLVTKMFQKIQDLIDDKDALVFVLIDEVESLTAARNACRAGTEPSDAIRVVNAVLTQIDQIKRHSNVVILTTSNITEKIDVAFVDRADIKQYIGPPSAAAIFKIYLSCLEELMKCQIIYPRQQLLTLRELEMIGFIENNVSKLSLLLNDISRKSEGLSGRVLRKLPFLAHALYVQAPTVTIEGFLQALSLAVDKQFEERKKLAAYI
partner: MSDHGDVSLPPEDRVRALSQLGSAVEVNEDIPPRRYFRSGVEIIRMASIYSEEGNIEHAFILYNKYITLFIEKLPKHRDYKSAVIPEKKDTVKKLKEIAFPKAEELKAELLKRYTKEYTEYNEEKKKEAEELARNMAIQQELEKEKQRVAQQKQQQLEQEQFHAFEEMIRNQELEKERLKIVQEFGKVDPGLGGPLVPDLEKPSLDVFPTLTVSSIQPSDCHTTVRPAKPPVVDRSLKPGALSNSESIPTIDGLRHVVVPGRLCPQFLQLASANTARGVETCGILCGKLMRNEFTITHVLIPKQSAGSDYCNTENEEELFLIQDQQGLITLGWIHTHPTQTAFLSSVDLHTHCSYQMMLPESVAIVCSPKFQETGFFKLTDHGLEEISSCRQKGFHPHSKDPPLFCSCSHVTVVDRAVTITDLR
B6: Oxidative stress-induced growth inhibitor 1 (Homo sapiens), Q9UJX0 (parent)
chain: MSSSRKDHLGASSSEPLPVIIVGNGPSGICLSYLLSGYTPYTKPDAIHPHPLLQRKLTEAPGVSILDQDLDYLSEGLEGRSQSPVALLFDALLRPDTDFGGNMKSVLTWKHRKEHAIPHVVLGRNLPGGAWHSIEGSMVILSQGQWMGLPDLEVKDWMQKKRRGLRNSRATAGDIAHYYRDYVVKKGLGHNFVSGAVVTAVEWGTPDPSSCGAQDSSPLFQVSGFLTRNQAQQPFSLWARNVVLATGTFDSPARLGIPGEALPFIHHELSALEAATRVGAVTPASDPVLIIGAGLSAADAVLYARHYNIPVIHAFRRAVDDPGLVFNQLPKMLYPEYHKVHQMMREQSILSPSPYEGYRSLPRHQLLCFKEDCQAVFQDLEGVEKVFGVSLVLVLIGSHPDLSFLPGAGADFAVDPDQPLSAKRNPIDVDPFTYQSTRQEGLYAMGPLAGDNFVRFVQGGALAVASSLLRKETRKPP
partner: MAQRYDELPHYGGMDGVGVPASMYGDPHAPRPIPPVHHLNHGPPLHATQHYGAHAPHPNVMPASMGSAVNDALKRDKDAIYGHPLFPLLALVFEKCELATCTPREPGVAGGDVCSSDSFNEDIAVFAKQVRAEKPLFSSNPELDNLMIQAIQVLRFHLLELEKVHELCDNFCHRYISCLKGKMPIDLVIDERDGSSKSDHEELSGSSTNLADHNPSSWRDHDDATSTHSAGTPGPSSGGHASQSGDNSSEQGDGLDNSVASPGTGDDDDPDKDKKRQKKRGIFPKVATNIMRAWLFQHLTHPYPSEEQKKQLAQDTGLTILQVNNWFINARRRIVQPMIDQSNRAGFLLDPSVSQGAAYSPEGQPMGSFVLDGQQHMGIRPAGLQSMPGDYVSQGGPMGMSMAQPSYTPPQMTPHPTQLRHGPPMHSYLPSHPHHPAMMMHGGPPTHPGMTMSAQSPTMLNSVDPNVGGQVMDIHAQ

Variants of: B1
Settings: with stk3_human STK3, Q13188

| effect of a mutation on the interaction | Variant |
| --- | --- |
| with no effect | R144H |

Variants of: B2
Settings: with KRT15, P19012
Sequence of KRT15, P19012 (P19012 whole entry): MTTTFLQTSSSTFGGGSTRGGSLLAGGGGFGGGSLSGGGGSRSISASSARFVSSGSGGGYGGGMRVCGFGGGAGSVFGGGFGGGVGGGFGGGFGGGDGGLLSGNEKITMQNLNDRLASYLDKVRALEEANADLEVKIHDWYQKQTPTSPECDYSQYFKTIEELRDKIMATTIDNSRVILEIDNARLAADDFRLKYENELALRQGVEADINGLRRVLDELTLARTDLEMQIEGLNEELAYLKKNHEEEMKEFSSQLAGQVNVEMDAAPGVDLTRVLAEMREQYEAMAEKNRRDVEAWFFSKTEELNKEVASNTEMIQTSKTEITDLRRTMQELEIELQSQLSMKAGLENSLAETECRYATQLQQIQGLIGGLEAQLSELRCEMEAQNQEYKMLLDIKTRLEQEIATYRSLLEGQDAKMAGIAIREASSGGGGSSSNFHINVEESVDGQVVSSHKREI

| effect of a mutation on the interaction | Variant |
| --- | --- |
| with no effect | I150V |

Variants of: B3
Settings: with pe2r3_human PTGER3, P43115

| effect of a mutation on the interaction | Variant |
| --- | --- |
| with no effect | H347Y |

Variants of: B4
Settings: with if4e_human EIF4E

| effect of a mutation on the interaction | Variant |
| --- | --- |
| with no effect | G6D |

Variants of: B5
Settings: with stabp_human STAMBP

| effect of a mutation on the interaction | Variant |
| --- | --- |
| with no effect | G409E |

Variants of: B6
Settings: with meis2_human MEIS2, O14770

| effect of a mutation on the interaction | Variant |
| --- | --- |
| with no effect | S236L |
